Assay results from article PMC7555306, “Domain Organization in Plant Blue-Light Receptor Phototropin2 of Arabidopsis thaliana Studied by Small-Angle X-ray Scattering” (International Journal of Molecular Sciences, 2020).

Biological target: the molecule itself
Assay: SAXS; in solution at 293 K, at least three specimen concentrations, extrapolated to infinite dilution; in the dark (D450), under blue-light irradiation (S390) and after dark reversion; apparent molecular weight from I(S=0,C=0) against hen egg-white lysozyme or the buffer's scattering

| Protein | stoichiometry N |
| --- | --- |
| LOV1 fragment of Arabidopsis thaliana phototropin2 (domain or fragment, UniProt P93025 117-265, looked up, phototropin2 (phot2), Arabidopsis thaliana, LOV1 fragment, residues 117-265 of the 915-residue protein; also called phot2 LOV1) FPRVSQELKTALSTLQQTFVVSDATQPHCPIVYASSGFFTMTGYSSKEIVGRNCRFLQGPDTDKNEVAKIRDCVKNGKSYCGRLLNYKKDGTPFWNLLTVTPIKDDQGNTIKFIGMQVEVSKYTEGVNDKALRPNGLSKSLIRYDARQK | 2 |
| Asp720Asn-mutated full-length phototropin2 of Arabidopsis thaliana (natural protein, phototropin2 (phot2), Arabidopsis thaliana, full length, residues 1-915, with Asp720Asn; also called phot2; full-length phot2) MERPRAPPSPLNDAESLSERRSLEIFNPSSGKETHGSTSSSSKPPLDGNNKGSSSKWMEFQDSAKITERTAEWGLSAVKPDSGDDGISFKLSSEVERSKNMSRRSSEESTSSESGAFPRVSQELKTALSTLQQTFVVSDATQPHCPIVYASSGFFTMTGYSSKEIVGRNCRFLQGPDTDKNEVAKIRDCVKNGKSYCGRLLNYKKDGTPFWNLLTVTPIKDDQGNTIKFIGMQVEVSKYTEGVNDKALRPNGLSKSLIRYDARQKEKALDSITEVVQTIRHRKSQVQESVSNDTMVKPDSSTTPTPGRQTRQSDEASKSFRTPGRVSTPTGSKLKSSNNRHEDLLRMEPEELMLSTEVIGQRDSWDLSDRERDIRQGIDLATTLERIEKNFVISDPRLPDNPIIFASDSFLELTEYSREEILGRNCRFLQGPETDQATVQKIRDAIRDQREITVQLINYTKSGKKFWNLFHLQPMRDQKGELQYFIGVQLDGSDHVEPLQNRLSERTEMQSSKLVKATATNVDEAVRELPDANTRPEDLWAAHSKPVYPLPHNKESTSWKAIKKIQASGETVGLHHFKPIKPLGSGDTGSVHLVELKGTGELYAMKAMEKTMMLNRNKAHRACIEREIISLLDHPFLPTLYASFQTSTHVCLITDFCPGGELFALLDRQPMKILTEDSARFYAAEVVIGLEYLHCLGIVYRDLKPENILLKKDGHIVLANFDLSFMTTCTPQLIIPAAPSKRRRSKSQPLPTFVAEPSTQSNSFVGTEEYIAPEIITGAGHTSAIDWWALGILLYEMLYGRTPFRGKNRQKTFANILHKDLTFPSSIPVSLVGRQLINTLLNRDPSSRLGSKGGANEIKQHAFFRGINWPLIRGMSPPPLDAPLSIIEKDPNAKDIKWEDDGVLVNSTDLDIDLF | 2 |
